Measured values reported in US20210292422A1 (published 2021).
Where two headings read alike, the source gives them in different places.

T1: LRP6E1E2 (UniProt O75581 20-630)
T1 chain: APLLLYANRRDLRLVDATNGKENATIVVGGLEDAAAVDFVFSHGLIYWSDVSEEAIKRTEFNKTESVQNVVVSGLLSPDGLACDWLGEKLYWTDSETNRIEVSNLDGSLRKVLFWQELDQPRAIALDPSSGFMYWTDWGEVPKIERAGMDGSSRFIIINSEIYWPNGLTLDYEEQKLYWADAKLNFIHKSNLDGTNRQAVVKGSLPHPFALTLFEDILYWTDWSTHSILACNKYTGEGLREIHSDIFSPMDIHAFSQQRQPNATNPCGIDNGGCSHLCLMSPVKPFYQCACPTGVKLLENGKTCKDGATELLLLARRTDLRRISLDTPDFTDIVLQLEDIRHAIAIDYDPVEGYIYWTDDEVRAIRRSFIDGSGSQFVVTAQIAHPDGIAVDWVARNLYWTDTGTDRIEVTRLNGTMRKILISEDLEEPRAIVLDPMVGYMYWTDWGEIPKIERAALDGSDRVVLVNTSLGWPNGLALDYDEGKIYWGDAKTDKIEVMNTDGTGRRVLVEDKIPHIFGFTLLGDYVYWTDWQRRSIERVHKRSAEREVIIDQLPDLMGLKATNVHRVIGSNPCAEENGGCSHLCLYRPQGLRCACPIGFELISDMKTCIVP


What was measured:
Experiment in all cases: BLI (Octet)
Frizzled 1 (Fzd1) = Frizzled 1 (Fzd1) (UniProt Q9UP38 111-230)
LRP6E1E2 [1] = target: T1, LRP6E1E2
LRP6E1E2 [2] = target: T1, LRP6E1E2

Binder	Kd (Frizzled 1 (Fzd1)) [nM]	Kd (LRP6E1E2 [1]) [nM]	Kd (LRP6E1E2 [2]) [nM]
L1:10:F1:Fc (bispecific antibody) DVKLVESGGGLVKLGGSLRLSCAASGFSFSTSYMSWVRQTPEKRLELVAAINLNGGSTYYSDTVKGRFTISRDNAKNTLYLQMSSLKSEDTAFYYCASELAGYGTPFAYWGQGTLVTVSAGSAASGSSGGSSSGADIVLTQSPATLSVTPGDSVSLSCKASQSISYNLHWYQQKSHESPRLLIKYTSQSISGIPSRFSGSGSGTDFTLTINNVETEDFGMYFCQQSNSWPLTFGAGTKLEVKGSGSGGSGSGEVQLVESGGGLVQPGGSLRLSCAASGFTFSHYTLSWVRQAPGKGLEWVSVISGDGSYTYYADSVKGRFTISSDNSKNTLYLQMNSLRAEDTAVYYCARNFIKYVFANWGQGTLVTVSSGGGGSGGGGSGGGGSDIELTQPPSVSVAPGQTARISCSGDNIGSFYVHWYQQKPGQAPVLVIYDKSNRPSGIPERFSGSNSGNTATLTISGTQAEDEADYYCQSYANTLSLVFGGGTKLTVLGSGSGDKTHTCPPCPAPEAAGGPSVFLFPPKPKDTLMISRTPEVTCVVVDVSHEDPEVKFNWYVDGVEVHNAKTKPREEQYNSTYRVVSVLTVLHQDWLNGKEYKCKVSNKALGAPIEKTISKAKGQPREPQVYTLPPSREEMTKNQVSLTCLVKGFYPSDIAVEWESNGQPENNYKTTPPVLDSDGSFFLYSKLTVDKSRWQQGNVFSCSVMHEALHNHYTQKSLSLSPGK	0.7	5.9	–
F1:10:L1:Fc (bispecific antibody) EVQLVESGGGLVQPGGSLRLSCAASGFTFSHYTLSWVRQAPGKGLEWVSVISGDGSYTYYADSVKGRFTISSDNSKNTLYLQMNSLRAEDTAVYYCARNFIKYVFANWGQGTLVTVSSGGGGSGGGGSGGGGSDIELTQPPSVSVAPGQTARISCSGDNIGSFYVHWYQQKPGQAPVLVIYDKSNRPSGIPERFSGSNSGNTATLTISGTQAEDEADYYCQSYANTLSLVFGGGTKLTVLGSGSGGSGSGDVKLVESGGGLVKLGGSLRLSCAASGFSFSTSYMSWVRQTPEKRLELVAAINLNGGSTYYSDTVKGRFTISRDNAKNTLYLQMSSLKSEDTAFYYCASELAGYGTPFAYWGQGTLVTVSAGSAASGSSGGSSSGADIVLTQSPATLSVTPGDSVSLSCKASQSISYNLHWYQQKSHESPRLLIKYTSQSISGIPSRFSGSGSGTDFTLTINNVETEDFGMYFCQQSNSWPLTFGAGTKLEVKGSGSGDKTHTCPPCPAPEAAGGPSVFLFPPKPKDTLMISRTPEVTCVVVDVSHEDPEVKFNWYVDGVEVHNAKTKPREEQYNSTYRVVSVLTVLHQDWLNGKEYKCKVSNKALGAPIEKTISKAKGQPREPQVYTLPPSREEMTKNQVSLTCLVKGFYPSDIAVEWESNGQPENNYKTTPPVLDSDGSFFLYSKLTVDKSRWQQGNVFSCSVMHEALHNHYTQKSLSLSPGK	0.4	5.4	–
L1:5:F1:Fc (bispecific antibody) DVKLVESGGGLVKLGGSLRLSCAASGFSFSTSYMSWVRQTPEKRLELVAAINLNGGSTYYSDTVKGRFTISRDNAKNTLYLQMSSLKSEDTAFYYCASELAGYGTPFAYWGQGTLVTVSAGSAASGSSGGSSSGADIVLTQSPATLSVTPGDSVSLSCKASQSISYNLHWYQQKSHESPRLLIKYTSQSISGIPSRFSGSGSGTDFTLTINNVETEDFGMYFCQQSNSWPLTFGAGTKLEVKGSGSGEVQLVESGGGLVQPGGSLRLSCAASGFTFSHYTLSWVRQAPGKGLEWVSVISGDGSYTYYADSVKGRFTISSDNSKNTLYLQMNSLRAEDTAVYYCARNFIKYVFANWGQGTLVTVSSGGGGSGGGGSGGGGSDIELTQPPSVSVAPGQTARISCSGDNIGSFYVHWYQQKPGQAPVLVIYDKSNRPSGIPERFSGSNSGNTATLTISGTQAEDEADYYCQSYANTLSLVFGGGTKLTVLGSGSGDKTHTCPPCPAPEAAGGPSVFLFPPKPKDTLMISRTPEVTCVVVDVSHEDPEVKFNWYVDGVEVHNAKTKPREEQYNSTYRVVSVLTVLHQDWLNGKEYKCKVSNKALGAPIEKTISKAKGQPREPQVYTLPPSREEMTKNQVSLTCLVKGFYPSDIAVEWESNGQPENNYKTTPPVLDSDGSFFLYSKLTVDKSRWQQGNVFSCSVMHEALHNHYTQKSLSLSPGK	0.6	4.9	–
αGFP:5:L1:Fc (bispecific antibody) QVQLVESGGGLVQPGGSLRLSCAASGFTFSRYGMHWVRQAPGKGLEWVSGISSIGSNTYYADSVKGRFTISRDNSKNTLYLQMNSLRAEDTAVYYCARWYKTYIDVWGQGTLVTVSSGGGGSGGGGSGGGGSDIELTQPPSVSVAPGQTARISCSGDNLGKKYVYWYQQKPGQAPVLVIYGDDERPSGIPERFSGSNSGNTATLTISGTQAEDEADYYCASYDSSHILIVFGGGTKLTVLGSGSGDVKLVESGGGLVKLGGSLRLSCAASGFSFSTSYMSWVRQTPEKRLELVAAINLNGGSTYYSDTVKGRFTISRDNAKNTLYLQMSSLKSEDTAFYYCASELAGYGTPFAYWGQGTLVTVSAGSAASGSSGGSSSGADIVLTQSPATLSVTPGDSVSLSCKASQSISYNLHWYQQKSHESPRLLIKYTSQSISGIPSRFSGSGSGTDFTLTINNVETEDFGMYFCQQSNSWPLTFGAGTKLEVKGSGSGDKTHTCPPCPAPEAAGGPSVFLFPPKPKDTLMISRTPEVTCVVVDVSHEDPEVKFNWYVDGVEVHNAKTKPREEQYNSTYRVVSVLTVLHQDWLNGKEYKCKVSNKALGAPIEKTISKAKGQPREPQVYTLPPSREEMTKNQVSLTCLVKGFYPSDIAVEWESNGQPENNYKTTPPVLDSDGSFFLYSKLTVDKSRWQQGNVFSCSVMHEALHNHYTQKSLSLSPGK	–	–	98
L1:15:F1:Fc (bispecific antibody) DVKLVESGGGLVKLGGSLRLSCAASGFSFSTSYMSWVRQTPEKRLELVAAINLNGGSTYYSDTVKGRFTISRDNAKNTLYLQMSSLKSEDTAFYYCASELAGYGTPFAYWGQGTLVTVSAGSAASGSSGGSSSGADIVLTQSPATLSVTPGDSVSLSCKASQSISYNLHWYQQKSHESPRLLIKYTSQSISGIPSRFSGSGSGTDFTLTINNVETEDFGMYFCQQSNSWPLTFGAGTKLEVKGSGSGGSGSGGSSGGEVQLVESGGGLVQPGGSLRLSCAASGFTFSHYTLSWVRQAPGKGLEWVSVISGDGSYTYYADSVKGRFTISSDNSKNTLYLQMNSLRAEDTAVYYCARNFIKYVFANWGQGTLVTVSSGGGGSGGGGSGGGGSDIELTQPPSVSVAPGQTARISCSGDNIGSFYVHWYQQKPGQAPVLVIYDKSNRPSGIPERFSGSNSGNTATLTISGTQAEDEADYYCQSYANTLSLVFGGGTKLTVLGSGSGDKTHTCPPCPAPEAAGGPSVFLFPPKPKDTLMISRTPEVTCVVVDVSHEDPEVKFNWYVDGVEVHNAKTKPREEQYNSTYRVVSVLTVLHQDWLNGKEYKCKVSNKALGAPIEKTISKAKGQPREPQVYTLPPSREEMTKNQVSLTCLVKGFYPSDIAVEWESNGQPENNYKTTPPVLDSDGSFFLYSKLTVDKSRWQQGNVFSCSVMHEALHNHYTQKSLSLSPGK	0.8	5.6	–
F1:15:L1:Fc (bispecific antibody) EVQLVESGGGLVQPGGSLRLSCAASGFTFSHYTLSWVRQAPGKGLEWVSVISGDGSYTYYADSVKGRFTISSDNSKNTLYLQMNSLRAEDTAVYYCARNFIKYVFANWGQGTLVTVSSGGGGSGGGGSGGGGSDIELTQPPSVSVAPGQTARISCSGDNIGSFYVHWYQQKPGQAPVLVIYDKSNRPSGIPERFSGSNSGNTATLTISGTQAEDEADYYCQSYANTLSLVFGGGTKLTVLGSGSGGSGSGGSSGGDVKLVESGGGLVKLGGSLRLSCAASGFSFSTSYMSWVRQTPEKRLELVAAINLNGGSTYYSDTVKGRFTISRDNAKNTLYLQMSSLKSEDTAFYYCASELAGYGTPFAYWGQGTLVTVSAGSAASGSSGGSSSGADIVLTQSPATLSVTPGDSVSLSCKASQSISYNLHWYQQKSHESPRLLIKYTSQSISGIPSRFSGSGSGTDFTLTINNVETEDFGMYFCQQSNSWPLTFGAGTKLEVKGSGSGDKTHTCPPCPAPEAAGGPSVFLFPPKPKDTLMISRTPEVTCVVVDVSHEDPEVKFNWYVDGVEVHNAKTKPREEQYNSTYRVVSVLTVLHQDWLNGKEYKCKVSNKALGAPIEKTISKAKGQPREPQVYTLPPSREEMTKNQVSLTCLVKGFYPSDIAVEWESNGQPENNYKTTPPVLDSDGSFFLYSKLTVDKSRWQQGNVFSCSVMHEALHNHYTQKSLSLSPGK	0.4	5.5	–
F1:5:L1:Fc (bispecific antibody) EVQLVESGGGLVQPGGSLRLSCAASGFTFSHYTLSWVRQAPGKGLEWVSVISGDGSYTYYADSVKGRFTISSDNSKNTLYLQMNSLRAEDTAVYYCARNFIKYVFANWGQGTLVTVSSGGGGSGGGGSGGGGSDIELTQPPSVSVAPGQTARISCSGDNIGSFYVHWYQQKPGQAPVLVIYDKSNRPSGIPERFSGSNSGNTATLTISGTQAEDEADYYCQSYANTLSLVFGGGTKLTVLGSGSGDVKLVESGGGLVKLGGSLRLSCAASGFSFSTSYMSWVRQTPEKRLELVAAINLNGGSTYYSDTVKGRFTISRDNAKNTLYLQMSSLKSEDTAFYYCASELAGYGTPFAYWGQGTLVTVSAGSAASGSSGGSSSGADIVLTQSPATLSVTPGDSVSLSCKASQSISYNLHWYQQKSHESPRLLIKYTSQSISGIPSRFSGSGSGTDFTLTINNVETEDFGMYFCQQSNSWPLTFGAGTKLEVKGSGSGDKTHTCPPCPAPEAAGGPSVFLFPPKPKDTLMISRTPEVTCVVVDVSHEDPEVKFNWYVDGVEVHNAKTKPREEQYNSTYRVVSVLTVLHQDWLNGKEYKCKVSNKALGAPIEKTISKAKGQPREPQVYTLPPSREEMTKNQVSLTCLVKGFYPSDIAVEWESNGQPENNYKTTPPVLDSDGSFFLYSKLTVDKSRWQQGNVFSCSVMHEALHNHYTQKSLSLSPGK	0.3	5.1	–
